According to patent US20080138335A1:

Assays:
[1] = biological target: CD40 expressed on Ramos [ATCC] cells (UniProt P25942); assay: cell-based or functional assay
[2] = biological target: CD40 expressed on Ramos [ATCC] cells (UniProt P25942); assay: flow cytometry (FACS) on Ramos cells expressing CD40, negative control at 2 ug/ml, FIG. 3
[3] = biological target: CD40 expressed on Ramos [ATCC] cells (UniProt P25942); assay: flow cytometry (FACS) on Ramos cells expressing CD40, negative control at 2 ug/ml, FIG. 1A
[4] = biological target: CD40 expressed on Ramos [ATCC] cells (UniProt P25942); assay: flow cytometry (FACS) on Ramos cells expressing CD40, negative control at 2 ug/ml, FIG. 1B
[5] = biological target: CD40 expressed on Ramos [ATCC] cells (UniProt P25942); assay: flow cytometry (FACS) on Ramos cells expressing CD40, negative control at 2 ug/ml, FIG. 1C

Sequence of CD40 expressed on Ramos [ATCC] cells (P25942 21-277 limits assumed): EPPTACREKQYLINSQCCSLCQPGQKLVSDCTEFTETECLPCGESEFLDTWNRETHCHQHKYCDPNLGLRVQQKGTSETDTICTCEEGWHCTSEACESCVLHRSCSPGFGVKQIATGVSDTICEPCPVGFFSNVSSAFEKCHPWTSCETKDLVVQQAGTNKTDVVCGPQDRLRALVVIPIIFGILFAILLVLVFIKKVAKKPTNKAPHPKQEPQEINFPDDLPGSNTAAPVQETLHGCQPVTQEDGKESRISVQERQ

## human IgG1 antibody against human serum albumin
[1]
  CD95 expression level in Ramos cells stimulated with soluble CD40 ligand, isotype control of FIG. 4 (average fluorescence intensity): 27.2
  CD95 expression level in Ramos cells, isotype control of FIG. 2A (average fluorescence intensity): 7.58
  CD95 expression level in Ramos cells, isotype control of FIG. 2B (average fluorescence intensity): 7.58
  CD95 expression level in Ramos cells, isotype control of FIG. 2C (average fluorescence intensity): 6.29
[2]
  average fluorescence intensity (average fluorescence intensity): 5.01
[3]
  average fluorescence intensity (average fluorescence intensity): 7.15
[4]
  average fluorescence intensity (average fluorescence intensity): 7.15
[5]
  average fluorescence intensity (average fluorescence intensity): 5.01
